First the molecules themselves.
B2: GST-ATG8A (natural protein)
chain: MAKSSFKISNPLEARMSESSRIREKYPDRIPVIVEKAGQSDVPDIDKKKYLVPADLTVGQFVYVVRKRIKLGAEKAIFVFVKNTLPPTAALMSAIYEEHKDEDGFLYMTYSGENTFG

In the test “GST-ATG8A” the target is B2. The test can be described thus: SPR; derived from AIM wt peptide competition. In general terms: In SPR one partner is held on a chip, and binding of the other changes the refractive index at the surface.
For a further test, the target named is AIM wt peptide. Briefly: SPR.

B1: HIS6-AtC53 (natural protein)
chain: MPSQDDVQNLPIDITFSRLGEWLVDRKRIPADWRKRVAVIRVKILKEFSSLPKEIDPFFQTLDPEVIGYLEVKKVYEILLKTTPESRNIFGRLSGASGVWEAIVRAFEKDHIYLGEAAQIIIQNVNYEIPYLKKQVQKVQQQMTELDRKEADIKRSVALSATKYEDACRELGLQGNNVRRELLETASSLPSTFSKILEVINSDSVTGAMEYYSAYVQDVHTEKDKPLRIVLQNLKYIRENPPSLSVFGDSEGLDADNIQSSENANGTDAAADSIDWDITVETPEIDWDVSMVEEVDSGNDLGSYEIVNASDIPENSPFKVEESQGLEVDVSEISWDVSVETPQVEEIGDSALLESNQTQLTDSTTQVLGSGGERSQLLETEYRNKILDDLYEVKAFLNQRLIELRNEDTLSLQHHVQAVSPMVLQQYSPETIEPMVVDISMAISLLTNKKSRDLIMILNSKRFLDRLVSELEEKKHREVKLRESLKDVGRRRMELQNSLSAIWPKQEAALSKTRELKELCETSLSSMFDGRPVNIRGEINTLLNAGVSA
A word on the Kd: it is the free concentration of one partner at which half of the binding sites on the other are occupied at equilibrium, for simple one-to-one binding. A lower Kd goes with tighter binding. In the case of B1, in the test with GST-ATG8A, the Kd is around 1390 nM.

The molecule B2 showed a Kd with AIM wt peptide of 5880 nM. This lies in the single-digit micromolar range.

B3: GST-GABARAP (natural protein)
chain: MKFVYKEEHPFEKRRSEGEKIRKKYPDRVPVIVEKAPKARIGDLDKKKYLVPSDLTVGQFYFLIRKRIHLRAEDALFFFVNNVIPPTSATMGQLYQEHHEEDFFLYIAYSDESVYGL
The molecule B3 registered a Kd in the test with AIM wt peptide of 1640 nM.

Source of the values: article PMC7515635 (2020).
